Source: patent US20090180995A1, “NOVEL ANTICOAGULANT POLYPEPTIDES AND COMPLEX” (National University of Singapore, priority 2005, published 2009)
Several values for one entry are separate records, joined by “and”; a condition that tells them apart may be missing. Equal values may be shown once. Entries after “also recorded” stand apart in the source; their conditions may differ.

Assays:
plasma = experiment: Prothrombin time; assay type: biochemical, human; details: for anticoagulant activity in buffers of high ionic strength: 50 mM Tris-HCl (pH 7.4) with NaCl 35 mM to 150 mM; for anticoagulant activity, prothrombin time: human plasma, 37° C.
Method: Briefly, prothrombin times may be measured according to the method of Quick (see Quick A J. (1935) J. Biol. Chem. 109, 73-74). 100 μl of 50 mM of Tris-HCl buffer (pH 7.4), 100 μl of plasma and 50 μL of the protein under investigation are to be incubated for 2 min at 37° C. Clotting is initiated by the addition of 150 μL of thromboplastin with calcium reagent.
Anticoagulant activity—The anticoagulant activities of H. haemachatus venom and its fractions was determined by four coagulation tests using a BBL fibrometer: • 1. Recalcification time: The recalcification times were determined according to the method of Langdell et al. (25). 50 mM Tris-HCl buffer (pH 7.4) (100 μl), plasma (100 μl) and various concentrations of venom or its fraction (50 μl) were preincubated for 2 min at 37° C. Clotting was initiated by the addition of 50 μl of 50 mM CaCl2. • 2. Prothrombin time: The prothrombin times were measured according to the method of Quick (26). 100 μl of 50 mM Tris-HCl buffer (pH 7.4), 100 μl of plasma and 50 μl of venom or its fractions were preincubated for 2 min at 37° C. Clotting was initiated by the addition of thromboplastin with calcium reagent (150 μl) which can be purchased from Sigma (St. Louis, Mo., USA). • For studying the role of electrostatic interactions, the anticoagulant activity of a specific concentration of hemextin A (4.4 μM), hemextin B (4.4 μM) and hemextin AB complex (0.11 μM) was monitored in 50 mM Tris-HCl (pH 7.4) containing various concentrations of NaCl (35 mM to 150 mM). • For studying the role of hydrophobic interactions, the anticoagulant activity of a specific concentration of hemextin A (4.4 μM), hemextin B (4.4 μM) and hemextin AB complex (0.11 μM) was monitored in 50 mM Tris-HCl (pH 7.4) containing various concentrations of glycerol (125 mM to 250 mM). • 2. Stypven time: Stypven time measurements were determined according to the method of Hougie (27). Plasma (100 μl), 50 mM Tris-HCl buffer (pH 7.4) (100 μl) and RVV (0.01 μg in 100 μl) and individual proteins or the reconstituted complex (50 μl) were preincubated for 2 min at 37° C. Clotting was initiated by the addition of 50 mM CaCl2 (50 μl). • 3. Thrombin time: Thrombin time was determined according to the method of Jim (28). Individual proteins or the reconstituted complex were incubated with 100 μl of plasma and 100 μl of 50 mM Tris-HCl buffer (pH 7.4) for 2 min at 37° C. in a total volume 250 μl. Clotting was initiated by the addition of standard thrombin reagent (0.01 NIH units in 50 μl).

[1] = Molecular diameter by GEMMA; assay type: physicochemical; details: gas phase, 20 mM ammonium acetate (pH 7.4)
Method: (A) Gas Phase Electrophoretic Mobility Macromolecule Analyzer (GEMMA)—The molecular diameters in the gas phase were determined with GEMMA (71, 72) using a nano-differential mobility analyzer, model 3980 (TSI, St Paul, Minn., USA), and a standard CPC type 3025 (TSI, St Paul, Minn., USA). The instrument was operated in the ‘cone jet’ mode with an operating voltage between 2.5 and 3.0 kV, resulting in currents from 200 to 300 nA. Filtered ambient air at 2 l/min and a concentric sheath gas flow of filtered CO2 at 0.1/min was used to stabilize the electrospray against corona discharge. Sample solutions of hemextin A (4 ng/ml) and hemextin B (4 ng/ml) were prepared in 20 mM ammonium acetate (pH 7.4) immediately prior to the experiment. Hemextin AB complex (4.5 ng/ml) was reconstituted in the above buffer and was incubated at 37° C. for 10 min. Another three-finger protein, toxin C isolated and purified from the same venom was used as a control in the GEMMA experiments. The samples were infused into the electrospray chamber with an inlet flow rate of 100 nl/min. Twenty scans over the whole EM diameter range (0 to 25 nm) were recorded and averaged to obtain a GEMMA spectrum. No smoothing algorithm was applied for the data presentation.

[2] = Hydrodynamic diameter by DLS; assay type: physicochemical; details: for hydrodynamic diameter (DLS): 50 mM Tris-HCl buffer (pH 7.4), 25° C.; for hydrodynamic diameter (DLS) in buffers of high ionic strength: 75 mM and 150 mM NaCl
Method: (B) Dynamic Light Scattering (DLS)—Complex formation studies with DLS were carried out at 25° C. using a BI200SM instrument (Brookhaven Instruments Corporation, Holstvile, N.Y., USA). A vertically polarized argon ion laser (514.2 nm, 75 mW; NEC model GLG-3112) was used as the light source. Sample solutions of hemextin A (4 mM), hemextin B (4.1 mM) and hemextin AB complex (2.3 mM) were prepared immediately prior to the experiment. The hydrodynamic diameter for the hemextin AB complex and the individual hemextins were recorded at 25° C. in solutions of different ionic strengths and at different glycerol concentrations. The ionic strengths were varied by the addition of NaCl. From the measured translational diffusion coefficient (DT), the hydrodynamic radius (RH) can be calculated using the Stokes-Einstein relation: […]
where kB is the Boltzmann constant, T is the temperature in Kelvin and η being the viscosity of the solvent. The intensity-intensity time correlation functions were obtained with a BI-9000 digital correlator equipped with the instrument. The particle size and size distribution were obtained by analyzing the field correlation function |g^(1)(τ)| using constrained regularized CONTIN method (73).

B1: hemextin A (protein)
chain: LKCKNKLVPFLSKTCPEGKNLCYKMTMLKMPKIPIKRGCTDACPKSSLLVKVVCCNKDKCN
In the case of B1, the “anticoagulant activity in buffers of high ionic strength” value (plasma) is reported as “did not affect the anticoagulant activity”, the “anticoagulant activity, prothrombin time” value (plasma) is reported as “mild anticoagulant activity” and the “apparent molecular diameter (GEMMA)” value [1] is reported as 10.2±0.38 nm. For the same molecule, the “hydrodynamic diameter (DLS)” value [2] was 10.3 nm and 10.4 nm and the “hydrodynamic diameter (DLS) in buffers of high ionic strength” value [2] was 11.57 nm.

B2: hemextin AB complex: synergistic 1:1 tetrameric complex of hemextin A and hemextin B, reconstituted from equimolar proteins (protein)
chain 1: LKCKNKLVPFLSKTCPEGKNLCYKMTMLKMPKIPIKRGCTDACPKSSLLVKVVCCNKDKCN
chain 2: LKCKNKVVPFLKCKNKVVPFLCYKMTLKKVPKIPIKRGCTDACPKSSLLVNVMCCKTDKCN
With B2 the “anticoagulant activity in buffers of high ionic strength” value (plasma) was “decreased with the increase in ionic strength up to 100 mM NaCl”, the “anticoagulant activity in buffers containing glycerol” value (plasma; 50 mM Tris-HCl (pH 7.4) with glycerol 125 mM to 250 mM) was “decreased with the increase in glycerol concentration” and the “anticoagulant activity at 125 mM glycerol” value (plasma; 125 mM glycerol) was “no decrease in the anticoagulant activity”. The “anticoagulant activity at 250 mM glycerol” value (plasma; 250 mM glycerol) was “higher than that of anticoagulant effect of hemextin A alone”, the “anticoagulant activity, prothrombin time” value (plasma) was “potent anticoagulant activity” and the “anticoagulant activity, prothrombin time” value (plasma; listed as equimolar mixture of hemextin A and B) was “more potent anticoagulant activity”. The “apparent molecular diameter (GEMMA)” value [1] was 16.3±0.43 nm and the “hydrodynamic diameter (DLS)” value [2] was 16.8 nm.

B3: hemextin B (protein)
chain: LKCKNKVVPFLKCKNKVVPFLCYKMTLKKVPKIPIKRGCTDACPKSSLLVNVMCCKTDKCN
With B3 the “anticoagulant activity of hemextin A with increasing hemextin B concentrations” value (plasma; hemextin A constant at 4.4 μM) was “increases with the increasing concentrations of hemextin B until the ratio reaches 1:1”, the “anticoagulant activity, prothrombin time” value (plasma) was “did not show any significant effect on clotting time; also recorded: did not prolong clotting times; also recorded: no anticoagulant activity” and the “apparent molecular diameter (GEMMA)” value [1] was 8.82±0.42 nm. For the same molecule, the “hydrodynamic diameter (DLS)” value [2] was 9.9 nm and the “hydrodynamic diameter (DLS) in buffers of high ionic strength” value [2] was “No change”.
